First the molecules themselves.
B1: TβRI ectodomain (receptor)
chain: LQCFCHLCTKDNFTCVTDGLCFVSVTETTDKVIHNSMCIAEIDLIPRDRPFVCAPSSKTGSVTTTYCCNQDHCNKIELPTTVKSSPGLGPVEL
notes: also called TGF-β type I receptor
B14: TGM-D2 (domain or fragment)
chain: RCSPLPTNDTVSFEYLKATVNPGIIFNITVHPDASGKYPELTYIKRICKNFPTDSNVQGHIIGMCYNAEWQFSSTPTCPAS
modifications: refolded from E. coli, disulfide-bonded; limits set between D1 (ends at 95) and D3 (starts at about 177); vector residues left after thrombin cleavage omitted

What all share (conditions): both partners purified
For assay [1], the target named is B14. In words: NMR titration; 1H-15N HSQC of 15N TGM-D2 or 15N TGM-D3 with 0 to 1.4 equivalents of unlabeled TβRI; 25 mM sodium phosphate, 50 mM NaCl, pH 7.0, 310 K (legend of Figure 3).
Assay [2] deals with T1, TβRII S75L (UniProt P37173 23-166, S75L).
T1 construct: also called Ser75Leu
As to the kind of experiment: SPR; biotinylated avi-tagged TGM-D3 captured (50-150 RU) on a neutravidin-coated CM-5 chip, TβRII and its variants injected; 25 mM Hepes, pH 7.4, 150 mM NaCl, 0.05% surfactant P20, 100 µl/min; 1:1 kinetic fit of duplicate or triplicate injection series. In general terms: SPR reads the build-up and loss of mass on a sensor chip optically.

For assay [3], the target named is T2, TβRII D55N (UniProt P37173 23-166, D55N).
T2 construct: also called Asp55Asn
Described as above.

The target in assay [4] is T3, TβRII I73A (UniProt P37173 23-166, I73A).
T3 construct: also called Ile73Ala
Described as above.

Assay [5] addresses T4, TβRII E142Q (UniProt P37173 23-166, E142Q).
T4 construct: also called Glu142Gln
The description is as above.

The target in assay [6] is T5, TβRII I76A (UniProt P37173 23-166, I76A).
T5 construct: also called Ile76Ala
The description is as above.

For assay [7], the target named is T6, TβRII ectodomain (UniProt P37173 23-166).
T6 construct: also called WT TβRII; TGF-β type II receptor
The assay is described as above.

In assay [8] the target is T7, biotinylated avi-tagged TβRII (UniProt P37173 23-166, a single biotin on the avi tag (BirA)).
T7 construct: also called TβRII (SPR surface)
As to the kind of experiment: SPR; biotinylated avi-tagged TβRII captured (50-150 RU) on a neutravidin-coated CM-5 chip, TGM-D3 and its variants injected; 25 mM Hepes, pH 7.4, 150 mM NaCl, 0.05% surfactant P20, 100 µl/min; 1:1 kinetic fit of duplicate or triplicate injection series.

In assay [9] the target is T6, TβRII ectodomain. As to the kind of experiment: ITC; TGM construct in the syringe (300-320 µM), 15 µM TβRII in the cell; 25 mM sodium phosphate, 50 mM NaCl, pH 6.0, 35 °C; 1:1 model (Nitpic, Sedphat). For orientation: ITC needs no label: the signal is the heat of the interaction.
Assay [10] addresses B1. In words: ITC; TGM construct titrated into TβRI in the cell; 25 mM Hepes, 50 mM NaCl, 0.05% NaN3, pH 7.5, 25 °C; 1:1 model.

T7 sequence (P37173 23-166): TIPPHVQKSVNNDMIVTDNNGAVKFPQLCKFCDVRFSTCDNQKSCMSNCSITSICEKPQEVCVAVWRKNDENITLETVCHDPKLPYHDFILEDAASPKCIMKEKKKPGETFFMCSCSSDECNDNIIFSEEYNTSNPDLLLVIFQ
T6 sequence (P37173 23-166): as above
T2 sequence (P37173 23-166 D55N): as the sequence (P37173 23-166) above, with D33N counted along it
T1 sequence (P37173 23-166 S75L): as the sequence (P37173 23-166) above, with S53L counted along it
T4 sequence (P37173 23-166 E142Q): as the sequence (P37173 23-166) above, with E120Q counted along it
T3 sequence (P37173 23-166 I73A): as the sequence (P37173 23-166) above, with I51A counted along it
T5 sequence (P37173 23-166 I76A): as the sequence (P37173 23-166) above, with I54A counted along it

Take B1: in [1], the “stoichiometry N” value was found to be 1.

B2: biotinylated avi-tagged TGM-D3 (domain or fragment)
chain: GSGTGCPPLPDDGIVFYEYYGYAGDRHTVGPVVTKDSSGNYPSPTHARRRCRALSQEADPGEFVAICYKSGTTGESHWEYYKNIGKCPDP
modifications: a single biotin on the avi tag (BirA)
notes: also called TGM-D3 (SPR surface); not shown: Thioredoxin, N-terminal, cleaved; His6, N-terminal, cleaved
On to B2, for which the Kd was found to be 310 ± 30 µM in assay [2]; 63 ± 1 µM in assay [3]; 6.9 ± 0.1 µM in assay [4]; 17 ± 1 µM in assay [5]; 26 ± 1 µM in [6]; 1.6 ± 0.1 µM in assay [7]. For the same molecule, the koff in assay [2] was determined as 3.9 ± 0.9 s⁻¹; in assay [3], 3.1 ± 0.1 s⁻¹; in assay [4], 1.1 ± 0.1 s⁻¹; in [5], 10 ± 10 s⁻¹; in assay [6] it was 1.2 ± 0.1 s⁻¹; in assay [7], 0.7 ± 0.1 s⁻¹. In addition, the kon came to 13000 M⁻¹ s⁻¹ in [2]; 50000 M⁻¹ s⁻¹ in assay [3]; 160000 M⁻¹ s⁻¹ in [4]; 410000 M⁻¹ s⁻¹ in assay [5]; 47000 M⁻¹ s⁻¹ in [6]; 410000 M⁻¹ s⁻¹ in [7].

B3: TGM-D3 (domain or fragment)
chain: GSGTGCPPLPDDGIVFYEYYGYAGDRHTVGPVVTKDSSGNYPSPTHARRRCRALSQEADPGEFVAICYKSGTTGESHWEYYKNIGKCPDP
notes: also called WT TGM-D3; domain 3 of H. polygyrus TGF-β mimic; not shown: Thioredoxin, N-terminal, cleaved; His6, N-terminal, cleaved
In assay [8], B3 showed a Kd of 1.6 ± 0.1 µM, a koff of 0.26 ± 0.01 s⁻¹ and a kon of 160000 M⁻¹ s⁻¹. Moreover, in assay [9], the Kd worked out at 1.2 µM and the “stoichiometry N” value turned out to be 1.1.

B4: TGM-D3 K254A (domain or fragment)
chain: GSGTGCPPLPDDGIVFYEYYGYAGDRHTVGPVVTKDSSGNYPSPTHARRRCRALSQEADPGEFVAICYKSGTTGESHWEYYANIGKCPDP
notes: also called Lys254Ala; not shown: Thioredoxin, N-terminal, cleaved; His6, N-terminal, cleaved
In assay [8], B4 had a Kd of 35 ± 1 µM, a koff of 12 ± 6 s⁻¹ and a kon of 300000 M⁻¹ s⁻¹.

B5: TGM-D3 I238A (domain or fragment)
chain: GSGTGCPPLPDDGIVFYEYYGYAGDRHTVGPVVTKDSSGNYPSPTHARRRCRALSQEADPGEFVAACYKSGTTGESHWEYYKNIGKCPDP
notes: not shown: Thioredoxin, N-terminal, cleaved; His6, N-terminal, cleaved
In assay [8], B5 gave a Kd of 25 ± 1 µM, a koff of 2.3 ± 0.1 s⁻¹ and a kon of 94000 M⁻¹ s⁻¹.

B6: TGM-D3 Y252A (domain or fragment)
chain: GSGTGCPPLPDDGIVFYEYYGYAGDRHTVGPVVTKDSSGNYPSPTHARRRCRALSQEADPGEFVAICYKSGTTGESHWEAYKNIGKCPDP
notes: as for B5
In assay [8], B6 yielded a Kd of 21 ± 1 µM, a koff of 1.7 ± 0.1 s⁻¹ and an association rate constant (kon) of 78000 M⁻¹ s⁻¹.

B7: TGM-D3 F235A (domain or fragment)
chain: GSGTGCPPLPDDGIVFYEYYGYAGDRHTVGPVVTKDSSGNYPSPTHARRRCRALSQEADPGEAVAICYKSGTTGESHWEYYKNIGKCPDP
notes: also called Phe235Ala; not shown: Thioredoxin, N-terminal, cleaved; His6, N-terminal, cleaved
As for B7, in assay [8], the affinity, expressed as Kd, was 4.1 ± 0.1 µM; the koff is 1.8 ± 0.2 s⁻¹; the kon was found to be 450000 M⁻¹ s⁻¹.

B8: TGM-D3 N255A (domain or fragment)
chain: GSGTGCPPLPDDGIVFYEYYGYAGDRHTVGPVVTKDSSGNYPSPTHARRRCRALSQEADPGEFVAICYKSGTTGESHWEYYKAIGKCPDP
notes: also called Asn255Ala; not shown: Thioredoxin, N-terminal, cleaved; His6, N-terminal, cleaved
In assay [8], B8 showed a Kd of 2.7 ± 0.1 µM, a koff of 1.3 ± 0.1 s⁻¹ and a kon of 480000 M⁻¹ s⁻¹.

B9: TGM-D3 V236A (domain or fragment)
chain: GSGTGCPPLPDDGIVFYEYYGYAGDRHTVGPVVTKDSSGNYPSPTHARRRCRALSQEADPGEFAAICYKSGTTGESHWEYYKNIGKCPDP
notes: also called Val236Ala; not shown: Thioredoxin, N-terminal, cleaved; His6, N-terminal, cleaved
With B9, in assay [8], the Kd was 4.6 ± 0.1 µM, the koff was determined as 1.8 ± 0.1 s⁻¹ and the kon turned out to be 380000 M⁻¹ s⁻¹.

B10: TGM-D3 K258A (domain or fragment)
chain: GSGTGCPPLPDDGIVFYEYYGYAGDRHTVGPVVTKDSSGNYPSPTHARRRCRALSQEADPGEFVAICYKSGTTGESHWEYYKNIGACPDP
notes: also called Lys258Ala; not shown: Thioredoxin, N-terminal, cleaved; His6, N-terminal, cleaved
For the molecule B10, in assay [8], the Kd stood at 2.7 ± 0.1 µM, the koff worked out at 1.2 ± 0.1 s⁻¹ and the kon came out at 430000 M⁻¹ s⁻¹.

B11: TGM-D3 H199A (domain or fragment)
chain: GSGTGCPPLPDDGIVFYEYYGYAGDRATVGPVVTKDSSGNYPSPTHARRRCRALSQEADPGEFVAICYKSGTTGESHWEYYKNIGKCPDP
notes: also called His199Ala; not shown: Thioredoxin, N-terminal, cleaved; His6, N-terminal, cleaved
Take B11: in assay [8], the Kd worked out at 3 ± 0.1 µM, the koff is 0.98 ± 0.01 s⁻¹ and the kon worked out at 330000 M⁻¹ s⁻¹.

B12: TGM-D3 I256A (domain or fragment)
chain: GSGTGCPPLPDDGIVFYEYYGYAGDRHTVGPVVTKDSSGNYPSPTHARRRCRALSQEADPGEFVAICYKSGTTGESHWEYYKNAGKCPDP
notes: also called Ile256Ala; not shown: Thioredoxin, N-terminal, cleaved; His6, N-terminal, cleaved
In assay [8], B12 registered a Kd of 1.6 ± 0.1 µM, a koff of 1.4 ± 0.1 s⁻¹ and a kon of 880000 M⁻¹ s⁻¹.

B13: TGM-D12 (domain or fragment)
chain: DDSGCMPFSDEAATYKYVAKGPKNIEIPAQIDNSGMYPDYTHVKRFCKGLHGEDTTGWFVGICLASQWYYYEGVQECDDRRCSPLPTNDTVSFEYLKATVNPGIIFNITVHPDASGKYPELTYIKRICKNFPTDSNVQGHIIGMCYNAEWQFSSTPTCPAS
modifications: refolded from E. coli, disulfide-bonded; start from the listed D1 range (16-95), end set just before D3 (Cys178 is the first D3 cysteine; 7SXB places D3 at about 177-262); vector residues left after …
For B13, in [10], binding was put at a Kd of 0.025 µM, the dH is -19 kcal/mol and the “stoichiometry N” value is ~1.

As for B14, in assay [10], the “fold increase of KD against TGM-FL” value was ~50 fold and the “stoichiometry N” value was ~0.5.

By stoichiometry N is commonly meant a count of units in the complex or per binding partner. As a reminder, the Kd is the constant that tells how readily two partners part at equilibrium. The term koff denotes the first-order rate constant of dissociation. Read a low koff as slow dissociation. Usually kon stands for the rate constant with which the complex forms. A high value points to faster complex formation.

Source of the values: paper PMC9163516, “Convergent evolution of a parasite-encoded complement control protein-scaffold to mimic binding of mammalian TGF-β to its receptors, TβRI and TβRII” (The Journal of Biological Chemistry, 2022).
